Laboratory results: article PMC3014449 (2010)
Positions of bridges follow the written chain, without caps; N, C: chain ends. Non-standard residues stand in square brackets, D forms with d. Trp(1-Me) = Cn1cc(C[C@H](N)C(=O)O)c2ccccc21; NMeI = CC[C@H](C)[C@H](NC)C(=O)O; Sar = CNCC(=O)O

Target: C3b C3b (Homo sapiens, UniProt P01024)
Assay: SPR

C3b C3b, sequence (P01024 566-670): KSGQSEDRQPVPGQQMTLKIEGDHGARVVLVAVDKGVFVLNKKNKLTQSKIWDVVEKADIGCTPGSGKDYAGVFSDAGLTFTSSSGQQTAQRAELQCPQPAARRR

B1: compstatin analogue 21 (peptide)
chain: Ac-ICV[Trp(1-Me)]QDW[Sar]AHRC[NMeI]-NH2
modifications: disulfide 2-12
SMILES: CC[C@H](C)[C@H](NC(C)=O)C(=O)N[C@H]1CSSC[C@@H](C(=O)N(C)[C@H](C(N)=O)[C@@H](C)CC)NC(=O)[C@H](CCCNC(=N)N)NC(=O)[C@H](Cc2c[nH]cn2)NC(=O)[C@H](C)NC(=O)CN(C)C(=O)[C@H](Cc2c[nH]c3ccccc23)NC(=O)[C@H](CC(=O)O)NC(=O)[C@H](CCC(N)=O)NC(=O)[C@H](Cc2cn(C)c3ccccc23)NC(=O)[C@H](C(C)C)NC1=O
**Q.** Which Kd does the source give for B1 here?
**A.** The Kd was 2.3 nM.
